{"source": "paper PMC11643046", "about": "(bioRxiv, 2025)", "molecular_target": "the molecule itself", "assay": "SDS-PAGE", "data": [{"protein": "Mycobacterium tuberculosis CrgA (Rv0011c), wild type, full length, with C-terminal His tag (natural protein) MMPKSKVRKKNDFTVSAVSRTPMKVKVGPSSVWFVSLFIGLMLIGLIWLMVFQLAAIGSQAPTALNWMAQLGPWNYAIAFAFMITGLLLTMRWH", "values": [{"measurement": "stoichiometry N", "value": 2}]}, {"protein": "CrgA G39V mutant (natural protein) MMPKSKVRKKNDFTVSAVSRTPMKVKVGPSSVWFVSLFIVLMLIGLIWLMVFQLAAIGSQAPTALNWMAQLGPWNYAIAFAFMITGLLLTMRWH", "values": [{"measurement": "binding result", "value": "binds"}]}, {"protein": "CrgA A78V mutant (natural protein) MMPKSKVRKKNDFTVSAVSRTPMKVKVGPSSVWFVSLFIGLMLIGLIWLMVFQLAAIGSQAPTALNWMAQLGPWNYAIVFAFMITGLLLTMRWH", "values": [{"measurement": "binding result", "value": "binds"}]}, {"protein": "CrgA N74A mutant (natural protein) MMPKSKVRKKNDFTVSAVSRTPMKVKVGPSSVWFVSLFIGLMLIGLIWLMVFQLAAIGSQAPTALNWMAQLGPWAYAIAFAFMITGLLLTMRWH", "values": [{"measurement": "binding result", "value": "binds"}]}, {"protein": "CrgA G44V mutant (natural protein) MMPKSKVRKKNDFTVSAVSRTPMKVKVGPSSVWFVSLFIGLMLIVLIWLMVFQLAAIGSQAPTALNWMAQLGPWNYAIAFAFMITGLLLTMRWH", "values": [{"measurement": "binding result", "value": "binds"}]}]}
